± gives the standard deviation of the averaged measurements.
B1: library; a variant is named by its letters at N, in order (parent)
chain: GCUGUCACCGGUGUAUUACCCUAGUGGUCGACCGGUCUGAUGAGUCUNNNNNNAGACGAAACAGC

Key:
hypoxanthine [1] = variants of: B1; assay: normalized RNA/DNA level with ligand (relative to sTRSVctl = 100) (log10 (% of sTRSVctl)); ligand: hypoxanthine (xanthine aptamer); higher = less ribozyme self-cleavage, higher mRNA level; conditions: ligand concentration (+) RNA-Seq: 5 mM, HEK293T, reporter: mCherry (pCS4076), ligand present: yes
Summary of the method: (§1)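 Ribozyme switch library plasmids linked to reporters were introduced into HEK293T cells at 4 µg per 6-well well, with ligand, if any, added 1 h before. Total RNA was extracted with EDTA 72 h later, reverse-transcribed, amplified, barcoded and sequenced. RNA level was computed from RNA over DNA reads relative to a spiked-in non-cleaving sequence or the top sequences, then scaled and log-transformed. The top set was 25 sequences, values were ×100 and log10, and the cutoff was ≥100 DNA reads.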

hypoxanthine [2] = variants of: B1; assay: normalized RNA/DNA level without ligand (relative to sTRSVctl = 100) (log10 (% of sTRSVctl)); ligand: hypoxanthine (xanthine aptamer); higher = less ribozyme self-cleavage, higher mRNA level; conditions: HEK293T, reporter: mCherry (pCS4076), ligand present: no
Summary of the method: as §1

Row | Variant | normalized RNA/DNA level with ligand (log10) (hypoxanthine [1]) | normalized RNA/DNA level without ligand (log10) (hypoxanthine [2])
1 | GCUGUCACCGGUGUAUUACCCUAGUGGUCGACCGGUCUGAUGAGUCUGUACACAGACGAAACAGC | 1.919 ± 0.0031 | 1.79 ± 0.041
2 | GCUGUCACCGGUGUAUUACCCUAGUGGUCGACCGGUCUGAUGAGUCUAUACCAAGACGAAACAGC | 1.91 ± 0.02 | 1.88 ± 0.031
3 | GCUGUCACCGGUGUAUUACCCUAGUGGUCGACCGGUCUGAUGAGUCUAUACCUAGACGAAACAGC | 1.985 ± 0.013 | 1.9 ± 0.039
4 | GCUGUCACCGGUGUAUUACCCUAGUGGUCGACCGGUCUGAUGAGUCUCUACCAAGACGAAACAGC | 1.93 ± 0.053 | 1.82 ± 0.02
5 | GCUGUCACCGGUGUAUUACCCUAGUGGUCGACCGGUCUGAUGAGUCUCUACCUAGACGAAACAGC | 1.96 ± 0.092 | 1.9389 ± 0.0018
6 | GCUGUCACCGGUGUAUUACCCUAGUGGUCGACCGGUCUGAUGAGUCUCUACCCAGACGAAACAGC | 1.935 ± 0.014 | 1.88 ± 0.06
7 | GCUGUCACCGGUGUAUUACCCUAGUGGUCGACCGGUCUGAUGAGUCUCUACCGAGACGAAACAGC | 1.95 ± 0.025 | 1.8 ± 0.026
8 | GCUGUCACCGGUGUAUUACCCUAGUGGUCGACCGGUCUGAUGAGUCUAUAAUCAGACGAAACAGC | 1.939 ± 0.0048 | 1.884 ± 0.0055
9 | GCUGUCACCGGUGUAUUACCCUAGUGGUCGACCGGUCUGAUGAGUCUGUAAUAAGACGAAACAGC | 1.878 ± 0.0069 | 1.823 ± 0.0023
10 | GCUGUCACCGGUGUAUUACCCUAGUGGUCGACCGGUCUGAUGAGUCUUUACGAAGACGAAACAGC | 1.923 ± 0.01 | 1.89 ± 0.022
11 | GCUGUCACCGGUGUAUUACCCUAGUGGUCGACCGGUCUGAUGAGUCUUUACCCAGACGAAACAGC | 1.973 ± 0.0071 | 1.93 ± 0.064
12 | GCUGUCACCGGUGUAUUACCCUAGUGGUCGACCGGUCUGAUGAGUCUUUACCUAGACGAAACAGC | 1.99 ± 0.053 | 1.88 ± 0.029
13 | GCUGUCACCGGUGUAUUACCCUAGUGGUCGACCGGUCUGAUGAGUCUUUACCAAGACGAAACAGC | 1.95 ± 0.038 | 1.871 ± 0.008
14 | GCUGUCACCGGUGUAUUACCCUAGUGGUCGACCGGUCUGAUGAGUCUGUACCCAGACGAAACAGC | 1.9 ± 0.045 | 1.8666 ± 0.0018
15 | GCUGUCACCGGUGUAUUACCCUAGUGGUCGACCGGUCUGAUGAGUCUGUACCUAGACGAAACAGC | 1.985 ± 0.016 | 1.9131 ± 0.00047
16 | GCUGUCACCGGUGUAUUACCCUAGUGGUCGACCGGUCUGAUGAGUCUCUACACAGACGAAACAGC | 1.91 ± 0.026 | 1.77 ± 0.029
17 | GCUGUCACCGGUGUAUUACCCUAGUGGUCGACCGGUCUGAUGAGUCUCUACAGAGACGAAACAGC | 1.91 ± 0.028 | 1.73 ± 0.039
18 | GCUGUCACCGGUGUAUUACCCUAGUGGUCGACCGGUCUGAUGAGUCUCUACAUAGACGAAACAGC | 1.95 ± 0.075 | 1.7979 ± 0.00079
19 | GCUGUCACCGGUGUAUUACCCUAGUGGUCGACCGGUCUGAUGAGUCUAUACGAAGACGAAACAGC | 1.868 ± 0.018 | 1.7 ± 0.025
20 | GCUGUCACCGGUGUAUUACCCUAGUGGUCGACCGGUCUGAUGAGUCUGUAAGUAGACGAAACAGC | 1.94 ± 0.039 | 1.79 ± 0.019
21 | GCUGUCACCGGUGUAUUACCCUAGUGGUCGACCGGUCUGAUGAGUCUAUACAUAGACGAAACAGC | 1.91 ± 0.03 | 1.794 ± 0.017

From the supplement of paper PMC6757056
